The record followed here is PMC6902028, “Elucidating the Immune Evasion Mechanisms of Borrelia mayonii, the Causative Agent of Lyme Disease” (Frontiers in Immunology, 2019).

In the assay the target is T1, complement regulator factor H (FH) (human, UniProt P08603 19-1231).
T1 construct: source: bought: Complement Technology (purified); native, in non-immune human serum (NHS, NHS-EDTA)
Kind of assay: ELISA; CspA of B. mayonii MN14-1420 (5 μg/ml) immobilised, increasing concentrations of FH; non-linear regression, one-site specific binding model. To be noted: both partners purified. A general note: In an ELISA, binding on a coated surface is turned into a signal by an enzyme label.

T1 sequence (P08603 19-1231): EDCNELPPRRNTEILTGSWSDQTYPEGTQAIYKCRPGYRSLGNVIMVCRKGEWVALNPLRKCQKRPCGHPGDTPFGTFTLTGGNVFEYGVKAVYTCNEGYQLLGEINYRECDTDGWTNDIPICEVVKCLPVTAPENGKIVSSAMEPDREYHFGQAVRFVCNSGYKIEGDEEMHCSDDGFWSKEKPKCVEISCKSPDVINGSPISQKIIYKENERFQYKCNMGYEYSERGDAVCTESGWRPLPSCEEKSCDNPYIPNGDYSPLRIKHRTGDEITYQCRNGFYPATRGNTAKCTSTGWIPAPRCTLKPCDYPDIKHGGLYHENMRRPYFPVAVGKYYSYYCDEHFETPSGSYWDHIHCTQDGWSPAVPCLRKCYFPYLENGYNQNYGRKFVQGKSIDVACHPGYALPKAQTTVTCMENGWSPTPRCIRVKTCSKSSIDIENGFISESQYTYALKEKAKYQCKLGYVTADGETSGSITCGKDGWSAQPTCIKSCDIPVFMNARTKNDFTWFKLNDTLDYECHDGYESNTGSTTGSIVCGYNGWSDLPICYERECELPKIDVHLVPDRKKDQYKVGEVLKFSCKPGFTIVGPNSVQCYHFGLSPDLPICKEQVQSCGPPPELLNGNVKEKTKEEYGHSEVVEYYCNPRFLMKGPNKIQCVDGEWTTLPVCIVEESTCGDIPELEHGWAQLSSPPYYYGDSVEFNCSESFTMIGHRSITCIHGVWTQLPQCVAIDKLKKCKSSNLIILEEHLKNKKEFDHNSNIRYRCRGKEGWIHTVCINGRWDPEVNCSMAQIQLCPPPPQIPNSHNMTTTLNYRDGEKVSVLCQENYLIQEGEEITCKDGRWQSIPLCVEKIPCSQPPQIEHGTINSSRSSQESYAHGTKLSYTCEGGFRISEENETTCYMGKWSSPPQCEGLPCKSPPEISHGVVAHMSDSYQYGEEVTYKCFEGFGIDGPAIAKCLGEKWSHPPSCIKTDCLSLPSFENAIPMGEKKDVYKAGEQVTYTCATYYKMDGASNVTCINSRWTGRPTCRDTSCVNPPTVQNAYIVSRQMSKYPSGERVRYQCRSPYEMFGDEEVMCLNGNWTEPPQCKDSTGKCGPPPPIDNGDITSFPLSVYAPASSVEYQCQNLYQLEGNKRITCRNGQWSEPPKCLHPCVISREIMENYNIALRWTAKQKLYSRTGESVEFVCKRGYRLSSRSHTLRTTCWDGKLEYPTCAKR

B1: His6-tagged CspA of B. mayonii MN14-1420 (CspA-like protein Bmayo_04535) (natural protein)
chain: TANPIDPKANGNIKPKNNINTKKNTNLEKNTQNFENESENPRSYNQKLLEATIKELKVIGKNLEDQRKEENIQIAKIVDEKFDFLGTFKVGPYDIIEENQQMKMKRIIYSSLNYKKEKIETLKEILETLKNNPEHQYIAGRLANLSWSIQFKIDDNFETIQNGVDNLDQEKSESLLMRAKSNLQLKERFKKTLNETLEAYSQNAQNIKNDIGILAEHVNKYYKYSDSLKPIFY
notes: also called CspA orthologous protein of B. mayonii; CspA ortholog; not shown: His6, N-terminal, kept
In the case of B1, binding was characterised by a dissociation constant (Kd) of 5.6 ± 0.58 nM.
